According to the supplement of paper PMC11502859:

Tested on: HEK293T
Assay: median enrichment of reporter reads in eGFP-reduced (low/intermediate) vs eGFP-high sorted cells (eGFP-extension fusion abundance) (ratio); higher = stronger loss of eGFP-fusion protein abundance (more destabilising extension)
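Note: lentiviral eGFP-IRES-mCherry reporter pool sorted by FACS 96 h post-transduction, gated on mCherry-high cells, Illumina read counts normalized per million, median across four biological replicates.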

With “TAPALELGARAAELVFGPQRRIQNQKLKSDVRWAPAPSAESRQGEAGWSQAPSHAAPKSWTHLWGAPHLHLRPHISPLPFLYV [MYO9B]” the median enrichment was 5.92.
Sequence YEERDYLHIKNI [SLC35B1] has a median enrichment of 0.713.
